From paper PMC5417323 (Journal of Molecular Biology, 2017)
Non-standard residues stand in square brackets, D forms with d. Primed or numbered codes have the meaning given here. No end group written: not given here. *: point of attachment. FITC = O=C1OC2(c3ccc(O)cc3Oc3cc(O)ccc32)c2ccc(NC(=S)*)cc21; pY = N[C@@H](Cc1ccc(OP(=O)(O)O)cc1)C(=O)O; FITC′ = not defined here

Experiments:
[1] = molecular target: Lck SH2 domain (UniProt P06239 118-231, biotin on the Avi-tag (yeast binding assay, pull-down)); test: fluorescence polarisation
[2] = molecular target: the eight SFK SH2 domains; test: fluorescence polarisation

Lck SH2 domain, sequence (P06239 118-231): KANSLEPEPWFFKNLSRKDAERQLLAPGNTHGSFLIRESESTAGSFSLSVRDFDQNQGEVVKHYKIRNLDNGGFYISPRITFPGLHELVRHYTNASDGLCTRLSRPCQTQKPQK

Q: {FITC}-TEGQ[pY]QPQPA [(FITC)-TEGQpYQPQPA] was tested. Which Kd [1] did it give?
A: The Kd was 2200 nM.

Q: With {FITC}-ADND[pY]IIPLPD [(FITC)-ADNDpYIIPLPD] as the binder, how does the Kd [1] read?
A: Its Kd is 955 nM.

Q: EPQ[pY]EEIPIYLK-{FITC′} [EPQp…-(FITC)] was tested. Which Kd [2] did it give?
A: Its Kd is 310 to 675 nM.
